From patent US20130190246A1 (PURDUE RESEARCH FOUNDATION, published 2013)
Where no end group is shown, it is not given here. The star is where a group is joined. Dansyl = CN(C)c1cccc2c(S(=O)(=O)*)cccc12

Columns and labels:
[1] = biological target: collagen (type and supplier not stated; Examples 11 and 12); test: fluorescence plate binding assay, dansyl label, collagen coated on 96-well plate
Experimental: (§1) Binding assays were done in a 96-well high-binding plate, black with a clear bottom (Costar). Collagen was compared to untreated wells and BSA coated wells. Collagen and BSA were immobilized at 37° C. for 1 hr by incubating 90 μL/well at concentrations of 2 mg/mL in 10 mM HCl and 1×PBS, respectively. Each well was washed 3× with 1×PBS after incubating. Z-SILY was dissolved in 1×PBS at concentrations from 100 μM to 10 nM in 10-fold dilutions. Wells were incubated for 30 min at 37° C. and rinsed 3× with PBS and then filled with 90 μL of 1×PBS. Fluorescence readings were taken on an M5 Spectramax Spectrophotometer (Molecular Devices) at excitation/emission wavelengths of 335 nm/490 nm respectively.

[2] = biological target: collagen (type and supplier not stated; Examples 11 and 12); test: fluorescence plate assay, collagen-coated wells, binding curve from the data of FIG. 4
Experimental: as §1

Kd [1]: 860 nM
EC50 (read off the curve) [2]: ~900 nM
B1: Dansyl-GRRANAALKAGELYKSILYGC (Z-SILY) (peptide)
peptide: Dansyl-GRRANAALKAGELYKSILYGC
notes: Fluorescently labelled version of SILY; also called dansyl-modified peptide SILY
